One block for each substance: values may come before it.
Columns and labels:
[1] = molecular target: SUV420H1(1–390), wild type, with N-terminal 6× His-TEV tag (human) (UniProt Q4FZB7); experiment: MST; His-tagged SUV420H1 labelled with RED-tris-NTA (50 nM protein, 10 nM dye) kept constant; nucleosomes serially diluted from 6 μM to 45.75 pM; 20 mM HEPES pH 7.5, 50 mM NaCl, 50 mM KCl, 1 mg/mL BSA, 0.05% Tween-20, 40 μM SAM, 2 mM DTT; room temperature; triplicate
[2] = molecular target: SUV420H1(1-390) wild type (human) (UniProt Q4FZB7); experiment: MST; conditions: MST: 20 mM HEPES pH 7.5, 50 mM NaCl (listed twice), 50 mM KCl, 1 mg/mL BSA, 0.05% Tween-20, 40 uM SAM, 2 mM DTT, room temperature, EMSA: 25 mM HEPES pH 7.5 …
SUV420H1(1-390) wild type (human), sequence (Q4FZB7 1-390): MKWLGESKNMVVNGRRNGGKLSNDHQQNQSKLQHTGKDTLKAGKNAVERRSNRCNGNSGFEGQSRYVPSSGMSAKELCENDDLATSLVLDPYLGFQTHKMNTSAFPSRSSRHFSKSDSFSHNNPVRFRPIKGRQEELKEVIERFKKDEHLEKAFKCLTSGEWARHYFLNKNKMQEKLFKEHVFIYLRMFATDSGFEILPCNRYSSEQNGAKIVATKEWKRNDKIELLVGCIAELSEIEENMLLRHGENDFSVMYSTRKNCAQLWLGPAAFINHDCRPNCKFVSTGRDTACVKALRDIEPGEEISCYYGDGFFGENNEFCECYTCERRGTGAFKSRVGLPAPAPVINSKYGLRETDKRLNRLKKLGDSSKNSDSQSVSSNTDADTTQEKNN

SUV420H1(1-335) (human) = experiment: MST; conditions: histone H4 K20M; MST: 20 mM HEPES pH 7.5, 50 mM NaCl (listed twice), 50 mM KCl, 1 mg/mL BSA, 0.05% Tween-20, 40 uM SAM, 2 mM DTT, room temperature; EMSA: 25 mM HEPES pH 7.5 …
SUV420H1(63-390) (human) = experiment: MST; conditions: histone H4 K20M; MST: 20 mM HEPES pH 7.5, 50 mM NaCl (listed twice), 50 mM KCl, 1 mg/mL BSA, 0.05% Tween-20, 40 uM SAM, 2 mM DTT, room temperature; EMSA: 25 mM HEPES pH 7.5 …
[3] = molecular target: SUV420H1(1–390) R357H (human) (UniProt Q4FZB7); experiment: MST; His-tagged SUV420H1 labelled with RED-tris-NTA (50 nM protein, 10 nM dye) kept constant; nucleosomes serially diluted from 6 μM to 45.75 pM; 20 mM HEPES pH 7.5, 50 mM NaCl, 50 mM KCl, 1 mg/mL BSA, 0.05% Tween-20, 40 μM SAM, 2 mM DTT; room temperature; triplicate
SUV420H1(1–390) R357H (human), sequence (Q4FZB7 1-390 R357H): as the sequence (Q4FZB7 1-390) above, with R357H counted along it

[4] = molecular target: SUV420H1(1–390) S255F (human) (UniProt Q4FZB7); experiment: as above
SUV420H1(1–390) S255F (human), sequence (Q4FZB7 1-390 S255F): as the sequence (Q4FZB7 1-390) above, with S255F counted along it

[5] = molecular target: SUV420H1(1–390) R357A (human) (UniProt Q4FZB7); experiment: as above
SUV420H1(1–390) R357A (human), sequence (Q4FZB7 1-390 R357A): as the sequence (Q4FZB7 1-390) above, with R357A counted along it

[6] = molecular target: SUV420H1(1–390) K258A (human) (UniProt Q4FZB7); experiment: as above
SUV420H1(1–390) K258A (human), sequence (Q4FZB7 1-390 K258A): as the sequence (Q4FZB7 1-390) above, with K258A counted along it

SUV420H1(63–390) (human) = SUV420H1(63–390) (human) (UniProt Q4FZB7); experiment: as above
SUV420H1(63–390) (human), sequence (Q4FZB7 63-390): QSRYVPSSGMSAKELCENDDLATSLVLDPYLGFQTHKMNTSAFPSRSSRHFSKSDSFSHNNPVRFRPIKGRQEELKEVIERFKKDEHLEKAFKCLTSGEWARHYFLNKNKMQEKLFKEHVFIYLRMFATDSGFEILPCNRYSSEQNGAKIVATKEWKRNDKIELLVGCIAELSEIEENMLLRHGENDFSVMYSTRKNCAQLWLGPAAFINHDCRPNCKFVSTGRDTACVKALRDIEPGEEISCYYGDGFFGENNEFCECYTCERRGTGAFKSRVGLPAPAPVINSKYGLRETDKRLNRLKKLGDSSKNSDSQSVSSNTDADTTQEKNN

[7] = molecular target: SUV420H1(1–390) S283L (human) (UniProt Q4FZB7); experiment: as above
SUV420H1(1–390) S283L (human), sequence (Q4FZB7 1-390 S283L): as the sequence (Q4FZB7 1-390) above, with S283L counted along it

[8] = molecular target: SUV420H1(1–390) R352A (human) (UniProt Q4FZB7); experiment: as above
SUV420H1(1–390) R352A (human), sequence (Q4FZB7 1-390 R352A): as the sequence (Q4FZB7 1-390) above, with R352A counted along it

[9] = molecular target: SUV420H1(1–390) R257A (human) (UniProt Q4FZB7); experiment: as above
SUV420H1(1–390) R257A (human), sequence (Q4FZB7 1-390 R257A): as the sequence (Q4FZB7 1-390) above, with R257A counted along it

[10] = molecular target: SUV420H1(1–390) R220A (human) (UniProt Q4FZB7); experiment: as above
SUV420H1(1–390) R220A (human), sequence (Q4FZB7 1-390 R220A): as the sequence (Q4FZB7 1-390) above, with R220A counted along it

SUV420H1(1–335) (human) = SUV420H1(1–335) (human) (UniProt Q4FZB7); experiment: as above
SUV420H1(1–335) (human), sequence (Q4FZB7 1-335): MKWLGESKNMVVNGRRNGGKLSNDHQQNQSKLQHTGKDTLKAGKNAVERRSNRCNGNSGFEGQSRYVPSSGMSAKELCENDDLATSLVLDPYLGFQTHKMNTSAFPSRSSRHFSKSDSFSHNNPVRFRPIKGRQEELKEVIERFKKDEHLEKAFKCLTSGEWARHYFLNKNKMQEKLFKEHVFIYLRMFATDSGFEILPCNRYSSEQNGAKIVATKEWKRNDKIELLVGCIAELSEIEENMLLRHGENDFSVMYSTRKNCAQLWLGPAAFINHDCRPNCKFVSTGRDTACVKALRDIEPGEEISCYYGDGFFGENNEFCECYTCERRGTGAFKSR

[11] = molecular target: SUV420H1(1–390) R286A (human) (UniProt Q4FZB7); experiment: as above
SUV420H1(1–390) R286A (human), sequence (Q4FZB7 1-390 R286A): as the sequence (Q4FZB7 1-390) above, with R286A counted along it

[12] = molecular target: SUV420H1(1–390) Y349A (human) (UniProt Q4FZB7); experiment: as above
SUV420H1(1–390) Y349A (human), sequence (Q4FZB7 1-390 Y349A): as the sequence (Q4FZB7 1-390) above, with Y349A counted along it

SUV420H1(1–390), wild type, with N-terminal 6× His-TEV tag (human), sequence (Q4FZB7 1-390): as the sequence (Q4FZB7 1-390) above

Kd [1]: 130 nM
Substance: H2A.Z-containing nucleosome core particle with wild-type H4 (H4K20) (from UniProt P0C0S5 14-126; P06899 1-126; P68431 1-136; P62805 1-103) (complex)

Substance: NCP H2A.Z, H4K20
Kd ([2]; histone variant H2A.Z): 130 nM

Kd [1]: 227 nM
Substance: H2A-containing nucleosome core particle with wild-type H4 (H4K20) (from UniProt P04908 16-130; P06899 1-126; P68431 1-136; P62805 1-103) (complex)

Substance: NCP H2A, H4K20 (canonical)
Kd [2]: 227 nM

Substance: NCP H2A, H4K20M
Kd (SUV420H1(1-335) (human)): 292 nM | Kd ([2]; histone H4 K20M): 62 nM | Kd (SUV420H1(63-390) (human)): 410 nM

Kd [3]: 83 nM | Kd [1]: 62 nM | Kd [4]: 182 nM | Kd [5]: 213 nM | Kd [6]: 112 nM | Kd (SUV420H1(63–390) (human)): 410 nM | Kd [7]: 85 nM | Kd [8]: 220 nM | Kd [9]: 144 nM | Kd [10]: 93 nM | Kd (SUV420H1(1–335) (human)): 292 nM | Kd [11]: 323 nM | Kd [12]: 108 nM
Substance: H2A-containing nucleosome core particle with H4K20M (from UniProt P04908 16-130; P06899 1-126; P68431 1-136) (complex)
